Values quoted from earlier work in paper PMC2957019 (Journal of labelled compounds & radiopharmaceuticals, 2009).
Where no end group is shown, it is not given here.

Conditions: incubation in serum

In the case of “^125I-FROP-1: 12-amino acid synthetic peptide radiolabeled with iodine (EDYELMDLLAYL), selected by phage display for targeting thyroid carcinoma cells (also: 125I radiolabel)”, the “time to degradation in serum” value is listed as ≤ 30 min.
